Test results from the DeepSol protein solubility set.

Experiment: soluble on expression in E. coli; label from the status in PepcDB or PDB records

Which “soluble on expression in E. coli” value does the source give for “MSLRTIKNLRDMIEQSSKLFANKDAFRVKTKDNSYRGITFAEFKNDIDAFGTALLDLLGTEKGFVAVIGENRYEWCVTYLATINGVGVVIPLDKELPLPELENLLKQSNANAIVYSGKFHDAIKEMSSRLSNIKYFINMNTNEHEDDKFLSFWVLLEKGKKLLESGKKDYLNAPIDENAMSAMIFTSGTTGQAKAVMLSHKNICSNMMAVSASVYMDSTDSVLSILPLHHTYECTAGFLTMIYNGATITFNEGLKYIGKNLKEAQPTILILVPLILESMYNKIWEQASKDKSLKFKLKAGLFISNLLYKVFKIDIRRKLFKSVIDNVGGKLRLVISGAAALDPEVAKGFEAMGIKVLQGYGLTEASPIVAVNRDKSYRHDSVGLPLPGLDVEIINPDKEGFGEIIVKGDSVMLGYYNNDDATKAVLKDGWLYTGDLGRMDEKGFIYITGRKKNIIVTKTGKNIFPEEVEAYLNKSPYIKESLVSGRENDKNDETIVVAQIVPDMDAIKAKLKTDTVPSPEEVYKLIKAEIRAINKNMPVYKRVVDITIRENEFAKTSSKKIKRYLEKTNEGHHHHHH” here?
The value was “soluble”.

Which “soluble on expression in E. coli” value does the source give for “MSLRTLYSGGLVFDGIGNLLEQHGVLVDGQKICRIAPLGEFEGFSDEKVDTSDGTLLPGLIDCHVHIVYSGEADPKSHLLKLRPGQIVINALENAKKTLSNGITSIRDLGGRDFLEFAVRDACNSGRQTGPTIRAAGRMICMTGGHGNAFGRVADGPDEVLKAVREQIHAGSDVIKLMATGGVMTPGVNPEDAHYSEEELRVGVNEGHRFNRKCASHAQGSAGILNAVNAGMDSIEHGIFMTQESLESMLKHQTYLVPTLSAVNNIYLNRDNGIPEFIVEKTLRIRERHHQSIKMFYKAGGKMAMGTDAGTPFNLHGENTNELQYMVDLGVSNLDVLKISTVNAADLMDLEDRGIIQEGFYADFLIVNGDPVKDISKVADRKNHRIVVKNGVHINEGHHHHHH” here?
Its value is “soluble”.

For “MSLSAPRITRVETAAIRAVGPSVLVRVWAGDEHGLGECYPSAPAAGIHHIVMNMEEQLLGEDPRDVERLYEKMRRWNIFTGGQAGAVITALSGIETALWDLAGKLQGVPVYRLLGGAFRRRVRLYADCNAGTVDAAAHHIEGGLFEEGSNEEYIAVAREAVERGFDAIKLDVDDITGPLHRDFWNGAISPREHEAMVARVAAVREAVGPEVEVAIDMHGRFDIPSSIRFARAMEPFGLLWLEEPTPPENLDALAEVRRSTSTPICAGENVYTRFDFRELFAKRAVDYVMPDVAKCGGLAEAKRIANLAELDYIPFAPHNVSSPVGTVAAAHVCAAVSNFAVLEWHAIDMPHWEDFVRYPGGPVIREGHIELTEEPGLGLELDEEAAFEHRHEKGGVPFFGRTEGHHHHHH”, which “soluble on expression in E. coli” value is on record?
Its value is “soluble”.

Which “soluble on expression in E. coli” value does the source give for “MSLSASFTGAGFFKGGKTLDFSKLSYLSNSFMSLPSTVRNKQASQTAKNKSMIEFIEKIQSKNIVVRQEERGIVISLAADAFFDSASADVKLEENRDSIQKIASFIGFLSPRGYNFKIEGHTDNIDTDVNGPWKSNWELSAARSVNMLEHILNYLDQSDVKRIENNFEVSGFGGSRPIATDDTPEGRAYNRRIDILITTDASLSFPKEGHHHHHH” here?
The value was “soluble”.

Which “soluble on expression in E. coli” value does the source give for “MSLSDAVNKHPKSPNPQLCAVTLLGNLVATPDIRYRANPATAVTEIVLATSSKWLDKITNKYKEWTSYHHVKVEGELVELALLNANKGDIILLHGYLSNIKPKSTDKSTNHLGIVHANFVQKFEKGYTQAINQIHCSAQLTSKPKLMLTEQNKNITQANIVINQHIYNTDKQAWQTISVERAIHVWGKQAQYLAEHGDIGDELMLEGKLSYTSGVSKDQFIEVKNVHLFKGTLEHHHHHH” here?
The value was “soluble”.

For “MSLSDDTSVVQDYIKSRDALVVLEQKMPLRDAFGGRYADIFSRFPGVIGRDGFEYFYRYFKNHVAVDVGTATAVTTLRVQAYTSKDAYLINKYLLEMAEKRVNELNDRSRQDSLRYALAEVAGAEAKVKAASTALSKFRSKASLFDPDRQSNIQLELVAKLRGELIAKQAQLSQLRMLSPQNPQIPSLAASIGALEASIASEKGGVAGEKNSLSDRSVEYQRLALEQSFGEKLLASALTSLEQARADAERKQIYLERVAEPNEPDVAMEPKREGHHHHHH”, which “soluble on expression in E. coli” value is on record?
The value was “soluble”.

Which “soluble on expression in E. coli” value does the source give for “MSLSDGNITFAYSYPIKAFEKFLGYYDRENRIAFNPSISMRTDFSFCLAACRYRKNGKTDTVVLDGYADNKYYKKAKFALDKFRSEYSINGSFDFYIKRYRRYQKAKGLSESSAVAAAVSRALISNVFGDDAAKDDIFVSRYARLVSGSGTRAAHDGISMWLSYPGMDSRDCVAFKVGKSNENLNYGVFPKYSDVATDNAHSIAVNSVFYGTWVSEKFSNVKRLISDHFDINDLLKIGENDMLRLNSILMSGGLIIQTPDSLRILKEILKFKSKNEGFYFTADTGPSIAIFSFDRSLIDEFRENVNDEYIEGSYDFKGYNNEGHHHHHH” here?
Its value is “not soluble”.

Which “soluble on expression in E. coli” value does the source give for “MSLSDPIKIGFLAPLTGPVSSWGLPGLHGCRLWEDWLNRAGGILVGGRRYPVSIVPFDCGYDPERAMEGARHLVHTEQVKLLMMLGGDTFTPLRGFLTANKVLTSTLLPSDLSPDTRYLIAPSEVHPIYNVTGVDWLARNRPELRRVAMCSQKDALGLPSIATYRAAFEAAGVPVVKEVEYDPEMTDVATIVQPMLDAQPDVLCWCTSYTPMVHAMTEYAHAKGFSGQILSCTLDNYQRLVARTSAEFMEGALFQFPDFDDPKLARKAFFFNRPSTFFKEYNARYPGNWSAVSWEYVAILDIWHAAVEKVASVHPVSVLATMKQMDPVTHAFGPARWWGEGHHHHHH” here?
Its value is “not soluble”.

With “MSLSDPIKITFSVEGLSHPFLVKQKQLAEETGKRLGAQVNVISANDDVNQQFNDIQTAIAQGTDALMMMPATTQGLDAVLKQAEAAQIPYFFSQKGMLGVEPASQVLAPYSNEGQQLGEWVVEHYKGQEDVKVAIISGIPGDQSSDARVNSFLLPLLRSCNFNVVANQPGNYRRGDSEKAAQNMLAANPDIDLLFGANDEAALGGIAALKSSGRQGVDVVGLDGQTDMFAAIQSGQALATVIHKPTAGIVVEEAVDYLRGKPVPEYRVLDEDLVTKETIETGAQPAEGHHHHHH” as the sequence, how does the “soluble on expression in E. coli” value read?
The value was “soluble”.

For “MSLSDRDSTLSRLKSAGENGDVEAQYALGLMYLYGEILDVDYQQAKIWYEKAADQNDPRAQAKLGVMYANGLGVNQDYQQSKLWYEKAAAQNDVDAQFLLGEMYDDGLGVSQDYQHAKMWYEKAAAQNDERAQVNLAVLYAKGNGVEQDYRQAKSWYEKAAAQNSPDAQFALGILYANANGVEQDYQQAKDWYEKAAEQNFANAQFNLGMLYYKGEGVKQNFRQAREWFEKAASQNQPNAQYNLGQIYYYGQGVTQSYRQAKDWFEKAAEKGHVDAQYNLGVIYENGEGVSQNYQQAKAWYEKAASQNDAQAQFELGVMNELGQGESIDLKQARHYYERSCNNGLKKGCERLKELLYKEGHHHHHH”, which “soluble on expression in E. coli” value is on record?
The value was “soluble”.

Which “soluble on expression in E. coli” value does the source give for “MSLSDTTKTASTRTSVTDQEALDFHAQGRPGKLEITPTKPMATQRDLSLAYSPGVAVPVKAIAENPATAYDYTTRGNMVAVISNGTAILGLGNLGALASKPVMEGKSVLFKRFADVDSIDLEVDTEDADEFINCVRYLGPSFGGINLEDIKAPECFIIESRLRELMDIPVFHDDQHGTAIIAAAGLINAIELTGRDFKTTKLVCNGAGAAAIACMDLIKAMGFNPENITLCDTKGVIYQGRTEGMNQWKSAHAVKTDRRTLTEAMNGADVVFGLSQKGAFTEEMIRSMAPKPIIFAMANPDPEITPEEVSRIRDDAIMATGRSDYPNQVNNVLGFPYIFRGALDVRARQINDAMKIAAAQALADLAREDVPDDVAAAYQGNRPRFGSQYIIPVPFDPRLISAIPVAVAKAAIETGVAQREIPDLDAYARELSARRDPMASTTQRLYERVRRSPKRVVFAEAEEEQVMRAAISFTAQGLGTAILLGRDDIIKANAERAGIDLDRANIEITNARLSSRVDAYVDYLYARLQRGGFLLRDVQRLIHNDRNHFAACMVAMGDADAVVTGVTRNYSTALEDIRRCINTKPGHRVIGVSLVVSRNRTVFVADTAVHDMPNAEDLADIAEEAAHLARRFGYEPRVAMLAYSTFGQPVGERSDKVREAVKILDKRNVNFEVDGEMSADVALNHQRMQSQYPFARLSGAANVLVMPAIHSASISTKMLQELGGATVIGPLLVGLDKSVQITSMGAKDSDIVNMAAIAAYNAGREGHHHHHH” here?
Its value is “not soluble”.

Which “soluble on expression in E. coli” value does the source give for “MSLSEEDLIENPLPENLLDKVIEGDAREVLKKIPDCSIHLMVTSPPYNVGKEYDEDMTLDEYLEFIEEIMKEVYRVLVWGGRACFNVANLGRKPYIPLHAYLIHLFEKIGFLIRGEIIWDKGEAVSGSSTAWGSWMSPVNPVLRDQHEYIIVMSKGDLKRRKPSDREAKSTITREEFLEFTRSVWKFPPESAKRVGHPAPFPEELPYRCIQLYTFKGDVVLDPFAGVGTTCVAAVKTGRHFVGIEINPEYVKKAEERVKDILSKPTLFEDHEGHHHHHH” here?
Its value is “soluble”.

Which “soluble on expression in E. coli” value does the source give for “MSLSELARRLNQCKKPVGDQGKVVVDDMNERHYELTGWGLDKIKIDKAYKMLDIGCGGGRTVNRLSKAAEEGEVYGIDYSSDCVRWASEYNKELIKEGRVHISEASVEKLPFEDNKFDVVTAVETIYFWPNVEENIKEVNRVLKKGGKFIIINEIYDDDKFRERNNEFAKNSNMKIYSPEKLKSLLKNAGYLNVEMEIKEENNWICYVSEKEGHHHHHH” here?
Its value is “soluble”.

Which “soluble on expression in E. coli” value does the source give for “MSLSFKGFKVVMLILLSTQSYASKLASSIVCDSTIENPCIVQDSKTQFSPVIRYREVASIADVYGGNITGINKFHLSGSEQPSEKGWEAIAESISRKMGAETKKVIVLDLRQESHGYLNGRAITLVSAYNWINLGKSNSQSTLDQENWLAGLRSRKIVNGVLTVPQYVAKQYSQGKSMVVSTVKNEEYYVYKKGFDYYRIFISDHRAPLDSEVDALVALIKNNPEDTWYHVHCRGGKGRTTTVFAMFDMLKNADKVSFEEIIARQASIPPFYNLMVTNREIPELTPYYEQRLQFLIHFYEFARQSLMGYSGTWSEWKKLNEGHHHHHH” here?
Its value is “soluble”.

Which “soluble on expression in E. coli” value does the source give for “MSLSFTGLEGTRVLVADDNFTSRAILKEVLESLRFDVTLAESGEEAVDLVQKTAEPFKVVLLDWRMPGLDGLACARHIRQLDLPVRPTILIITAYGREEVLGEIPSEIIDGVLLKPVARSLLLNTILDALPEYSSRPEQESRIIQIDTAQLRQELADTSVLVVEDNKINRQIAKELLEGVGVRVTLAGDGLEALALVENYDFDLIFMDIQMPRMDGLEACRRIRQLQHKKQPPVVAMTAHALAGDRETSLRAGMNDHITKPIDPDELYAALANWIKRNHAEGHHHHHH” here?
Its value is “soluble”.

Which “soluble on expression in E. coli” value does the source give for “MSLSHSAEDSRRRELGAFLRSRRERLTPSATGISTGLRRRTPGLRREEVAMIAGVGTTWYTWLEQGRDVRPSVEVLTALSGALRLDAAEKRHLFTLAGRQLPERRRIAAGKVEGPLLHMLQSLVLQPAYVVGPRWDVLAWNDAAVAIFGDYGQLEGDARNIIHGVFTDPHRRHLLADWEQVARATLAAFRAESARYVGDPDFERLIALMMRSSPEFREWWPQRDVVHRLSGMKHLRHPTAGAMVFEHMSLSIDDGSDMKLIVYTPLAEQNSIAKLQSLLDAILRKEDRLKGIITITTDPNSSSVDKLAAALEHHHHHH” here?
Its value is “soluble”.

Which “soluble on expression in E. coli” value does the source give for “MSLSHTANPCCSHPCQNRGVCMSVGFDQYKCDCTRTGFYGENCSTPEFLTRIKLFLKPTPNTVHYILTHFKGFWNVVNNIPFLRNAIMSYVLTSRSHLIDSPPTYNADYGYKSWEAFSNLSYYTRALPPVPDDCPTPLGVKGKKQLPDSNEIVEKLLLRRKFIPDPQGSNMMFAFFAQHFTHQFFKTDHKRGPAFTNGLGHGVDLNHIYGETLARQRKLRLFKDGKMKYQIIDGEMYPPTVKDTQAEMIYPPQVPEHLRFAVGQEVFGLVPGLMMYATIWLREHNRVCDVLKQEHPEWGDEQLFQTSRLILIGETIKIVIEDYVQHLSGYHFKLKFDPELLFNKQFQYQNRIAAEFNTLYHWHPLLPDTFQIHDQKYNYQQFIYNNSILLEHGITQFVESFTRQIAGRVAGGRNVPPAVQKVSQASIDQSRQMKYQSFNEYRKRFMLKPYESFEELTGEKEMSAELEALYGDIDAVELYPALLVEKPRPDAIFGETMVEVGAPFSLKGLMGNVICSPAYWKPSTFGGEVGFQIINTASIQSLICNNVKGCPFTSFSVPDPELIKTVTINASSSRSGLDDINPTVLLKERSTELEGHHHHHH” here?
Its value is “not soluble”.
